Results as given in paper PMC7278352.

Molecular target: pre-formed paclitaxel-stabilized microtubules (tubulin isolated from porcine brain) (porcine) (UniProt P02550)
Test: co-sedimentation; pre-formed paclitaxel-stabilized MTs (100 ug/ml tubulin) incubated 30 min at room temperature with 250 ug/ml protein in General tubulin buffer (80 mM PIPES, 0.5 mM EGTA, 2 mM MgCl2, pH 6.9) with 1 mM GTP and 5% glycerol; spun through a 60% glycerol cushion at 100,000 x g for 40 min; band intensity in pellet and supernatant on SDS-PAGE, 5 repeats

Chain of UniProt P02550 (P02550 whole entry, looked up): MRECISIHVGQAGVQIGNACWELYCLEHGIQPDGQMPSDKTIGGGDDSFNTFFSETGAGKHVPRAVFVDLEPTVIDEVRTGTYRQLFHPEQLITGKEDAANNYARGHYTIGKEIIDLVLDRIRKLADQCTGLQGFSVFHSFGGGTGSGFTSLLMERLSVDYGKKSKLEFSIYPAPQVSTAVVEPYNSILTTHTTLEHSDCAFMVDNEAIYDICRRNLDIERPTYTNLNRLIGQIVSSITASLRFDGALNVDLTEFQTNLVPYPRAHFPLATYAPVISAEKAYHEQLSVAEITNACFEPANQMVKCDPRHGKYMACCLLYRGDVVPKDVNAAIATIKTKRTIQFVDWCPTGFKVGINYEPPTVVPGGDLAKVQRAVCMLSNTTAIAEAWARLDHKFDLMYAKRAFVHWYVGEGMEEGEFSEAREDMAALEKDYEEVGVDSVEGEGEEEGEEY

microtubule-associated protein fraction (MAPF)
percent of protein pelleted with MTs: 78%
